What all share (type): biochemical
Series [1] in a line: Substrate specificity to para-nitrophenyl esters: p-NP-butyrate. To be noted: p-NP-butyrate 0.8 mM, phosphate buffer pH 8, room temperature, 410 nm. The procedure:
(§1) For the determination of chain length specificities of the investigated esterases, p-nitrophenyl esters with different chain lengths were used as the substrate for the spectroscopic measurements of activity. To the p-nitrophenyl esters dissolved in 10 mL isopropanol were added 90 mL phosphate buffer (pH 8, disodium hydrogen phosphate and potassium dihydrogen phosphate). The final concentration of the substrate was 0.8 mM. Each 990 μL buffer-substrate mixture was mixed with 10 μL of the enzyme sample and incubated at room temperature for one minute. The increase in absorption at 410 nm was then measured (UV MC^2, SAFAS, Monaco). The enzyme activity was calculated using a molar extinction coefficient of 17100 [M^−1cm^−1], wherein 1 unit was defined as the quantity of enzyme that released 1 μmol p-nitrophenol per minute.
(§2) The data in Table 3 represent mean values from three independent measurements with a relative standard deviation of less than 10%.

A short description of series [2]: Esterase activity by hydrolysis of bis-(p-methylbenzoic acid) ester of ethylene glycol (titration). To be noted: titrimetric, 30° C., tris/HCl pH 9.0; for Specific Activity / vMax: mean of three measurements. The protocol: 2.4.2 Determination of the Enzymatic Activity
The cleavage of the bis-(p-methylbenzoic acid) ester of ethylene glycol catalyzed by the inventive enzymes affords 2 equivalents of 4-methylbenzoic acid and ethylene glycol (see FIG. 2).
For the preparation of the enzyme assay, the desired amount of substrate was mixed with 0.5 g Triton X100 and dissolved with heating in 50 mL ethanol (99%, denatured). Once all the substrate was dissolved, the solution was added to 50 mL buffer (2 mM tris/HCl buffer; pH 9.0) with intense stirring by Ultra-Turrax. This solution was then stirred at room temperature for at least 12 hours in order to remove a large part of the added ethanol. The thus-prepared substrate solution was immediately titrated. The reaction buffer was pre-incubated at 30° C. for 10 minutes.
Different final concentrations (0.67 mM to 50 mM) were used in a total reaction volume of 2 mL including enzyme. After addition of the enzyme, the NaOH consumption (concentration determination by triple titration with oxalic acid) with the titration apparatus 702 SAT (METROHM Ltd., Switzerland)) at a reaction temperature of 30° C. was plotted. One unit is defined as the enzyme activity that releases 1 μmol acid per minute.
In this and the subsequent examples, the following abbreviations are used for the tested esterases: enzyme according to Seq ID No. 12 (pNB-Est13), enzyme according to Seq ID No. 2 (pNB-Est19), enzyme according to Seq ID No. 1 (pNB-Est17). The data obtained for the cited esterases in Table 2 were determined by titrimetric measurements and represent mean values from: three independent measurements with a relative standard deviation of less than 5%.

The nature of series [3]: Substrate specificity to para-nitrophenyl esters: p-NP-caprate. To be noted: p-NP-caprate 0.8 mM, phosphate buffer pH 8, room temperature, 410 nm. The protocol:
as §1, §2

Series [4] is described as follows: Substrate specificity to para-nitrophenyl esters: p-NP-caproate. To be noted: p-NP-caproate 0.8 mM, phosphate buffer pH 8, room temperature, 410 nm. The protocol: as §1, §2
A short description of series [5]: Substrate specificity to para-nitrophenyl esters: p-NP-palmitate. To be noted: p-NP-palmitate 0.8 mM, phosphate buffer pH 8, room temperature, 410 nm. The procedure: as §1, §2
Series [6] can be described thus: Titrimetric Michaelis-Menten kinetics, hydrolysis of dimethyl terephthalate. To be noted: substrate DMT; for kcat: assumes added enzyme = active enzyme; for vMax: titrimetric, 30° C., pH 9. The protocol: (§3) The enzyme activities of the esterases were measured with the titration apparatus 702 SAT (METROHM Ltd., Switzerland) for various substrates of the phthalate family (FIG. 4). The phthalates were dissolved in diethyl ether with 0.5 g Triton X100. The diethyl ether was then removed under a stream of nitrogen. 50 ml buffer (2 mM Tris/HCl, pH 9) was added, homogenized by ultrasound and used in different final concentrations (0.3 mM to 100 mM) in a total reaction volume of 2 mL (including enzyme). The reaction buffer was pre-incubated at 30° C. for 10 minutes. After addition of the enzyme, the NaOH consumption (concentration determination by triple titration with oxalic acid) at a reaction temperature of 30° C. was plotted. One unit is defined as the enzyme activity that releases 1 μmol acid per minute.
(§4) Titrimetric measurements were carried out to determine the kinetic constants vmax, kM, kcat and kcat/kM of the three para-nitrobenzyl esterases pNB-Est17, pNB-Est19 and pNB-Est13 towards different phthalates and terephthalates. The enzyme activities were determined for different substrate concentrations and evaluated according to MICHAELIS-MENTEN (see FIGS. 5 to 7). The measured kM- and vmax values and the added enzyme concentrations were used to calculate the kinetic constants (kcat and k2) and the catalytic efficiency (kcat/kM)—under the assumption that the added enzyme concentration was the same as the concentration of the active enzyme.
(§5) The data in FIGS. 5 to 7 and Tables 5 to 7 represent mean values from three independent titrimetric measurements with a relative standard deviation of less than 5%. The calculation of kcat and kcat/kM was based on the assumption that the added enzyme concentration was the same as the concentration of the active enzyme.

Series [7] in a line: Titrimetric Michaelis-Menten kinetics, hydrolysis of diethyl phthalate. To be noted: substrate DEP; for kcat: assumes added enzyme = active enzyme; for vMax: titrimetric, 30° C., pH 9. The protocol:
as §3, §4, §5

Series [8] in a line: Substrate specificity to para-nitrophenyl esters: p-NP-stearate. To be noted: p-NP-stearate 0.8 mM, phosphate buffer pH 8, room temperature, 410 nm. The procedure: as §1, §2
A short description of series [9]: Titrimetric Michaelis-Menten kinetics, hydrolysis of dimethyl phthalate. To be noted: substrate DMP; for kcat: assumes added enzyme = active enzyme; for vMax: titrimetric, 30° C., pH 9. The procedure: as §3, §4, §5
The nature of series [10]: Substrate specificity to para-nitrophenyl esters: p-NP-laurate. To be noted: p-NP-laurate 0.8 mM, phosphate buffer pH 8, room temperature, 410 nm. The procedure: as §1, §2
Series [11] can be described thus: Titrimetric Michaelis-Menten kinetics, hydrolysis of dimethyl isophthalate. To be noted: substrate DMIP; for kcat: assumes added enzyme = active enzyme; for vMax: titrimetric, 30° C., pH 9. The protocol:
as §3, §4, §5

Series [12] in a line: Titrimetric Michaelis-Menten kinetics, hydrolysis of diethyl terephthalate. To be noted: substrate DET; for kcat: assumes added enzyme = active enzyme; for vMax: titrimetric, 30° C., pH 9. The procedure: as §3, §4, §5
A short description of series [13]: Substrate specificity to para-nitrophenyl esters: p-NP-myristate. To be noted: p-NP-myristate 0.8 mM, phosphate buffer pH 8, room temperature, 410 nm. The protocol: as §1, §2
A short description of series [14]: Substrate specificity to para-nitrophenyl esters: p-NP-caprylate. To be noted: p-NP-caprylate 0.8 mM, phosphate buffer pH 8, room temperature, 410 nm. The procedure: as §1, §2
Series [15] is described as follows: Titrimetric Michaelis-Menten kinetics, hydrolysis of dibutyl phthalate. To be noted: substrate DBP; for kcat: assumes added enzyme = active enzyme; for vMax: titrimetric, 30° C., pH 9. The procedure: as §3, §4, §5

B1: pNB-Est13: para-nitrobenzyl esterase, enzyme according to Seq ID No. 12, Bacillus licheniformis DSM13 (gi 52346943) (protein, listed as Bacillus licheniformis)
chain: MYDTTVETRFGKLKGRAENGVRIFKGVPYAKPPVGDLRFREPQRMEAWEGELDAFQFGPVCPQPDGVLPESAGVQKSEDCLYLNVYAPEEADGDLPVMVWIHGGAFYRGAGSEPLYDGTQLAKQGKVIVVTINYRLGPFGFLHLSSIDDSYSSNLGLLDQIAALEWVKDNIAFFGGDRHHITVFGESAGSMSIASLLAMPKAKGLFQQAIMESGASATMSDKLAKAAAERFLRILDIDHHHLERLHDVSDQELLEAADQLRTLMGENIFELIFLPALDEKTLPLKPEVAVAKGAAKEINLLIGTNRDEGVLFFPSDSDLLPESKINEILEEYMGKEAAEAASSLYPRSLEGHVDMMTDLIFWHPSVVFASAQSRYASVFMYRFDWHADSEQPPFNKAAHGLEIPFVFGNMDILEQLTGTKAGEEAQLLAEQIQAAWVSFARSGNPSTDDVSWPDYDEDSRKTLIFDQEVAVESDPYSDKRKMLTAPNPQI
Take B1: the “Specific Activity” value is 22.4 U/mg in [1]; 2.87 µmol/min/mg in series [2]; 4.4 U/mg in [3]; 50.5 U/mg in [4]; less than 1 U/mg in [5]; less than 1 U/mg in series [8]. Also, the “Specific Activity” value was 1.3 U/mg in series [10], less than 1 U/mg in series [13] and 13.0 U/mg in series [14]. Besides, the kcat in series [2] stood at 9358 s⁻¹; in [6] it was 14784 s⁻¹; in series [7], 10468 s⁻¹; in series [9], 29735 s⁻¹; in [11] it was 90267 s⁻¹; in [12], 12574 s⁻¹. The kcat in series [15] is 9356 s⁻¹. For the same molecule, the vMax in series [2] worked out at 1.801 µmol/min; in series [6], 4.53 U/mg; in series [7], 3.21 U/mg; in series [9], 9.11 U/mg; in series [11], 27.67 U/mg; in [12], 3.57 U/mg. In [15], this molecule yielded a vMax of 2.87 U/mg.

B2: pNB-Est17: para-nitrobenzyl esterase, enzyme according to Seq ID No. 1, from Bacillus subtilis (17A1), 489 amino acids (protein, listed as Bacillus subtilis)
chain: MTHQIVTTQYGKVKGTTENGVHKWKGIPYAKPPVGQWRFKAPEPPEVWEDVLDATAYGPICPQPSDLLSLSYTELPRQSEDCLYVNVFAPDTPSQNLPVMVWIHGGAFYLGAGSEPLYDGSKLAAQGEVIVVTLNYRLGPFGFLHLSSFDEAYSDNLGLLDQAAALKWVRENISAFGGDPDNVTVFGESAGGMSIAALLAMPAAKGLFQKAIMESGASRTMTKEQAASTSAAFLQVLGINEGQLDKLHTVSAEDLLKAADQLRIAEKENIFQLFFQPALDPKTLPAEPEKAISEGAASGIPLLIGTTRDEGYLFFTPDSDVHSQETLDAALEYLLGKPLAEKAADLYPRSLESQIHMMTDLLFWRPAVAYASAQSHYAPVWMYRFDWHPKKPPYNKAFHALELPFVFGNLDGLERMAKAEITDEVKQLSHTIQSAWITFAKTGNPSTEAVNWPTYHEETRETLILDSEITIENDPESEKRQKLFPSKGE
Take B2: the “Specific Activity” value in series [1] is 196.3 U/mg; in series [2], 1.60 µmol/min/mg; in series [3], 10.2 U/mg; in [4] it was 102.7 U/mg; in series [5] it was less than 1 U/mg; in series [8] it was less than 1 U/mg. Besides, the “Specific Activity” value in [10] is reported as 3.4 U/mg; in series [13] it was less than 1 U/mg; in [14] it was 73.2 U/mg. For the same molecule, the kcat in series [2] came to 5177 s⁻¹; in [6], 60028 s⁻¹; in series [7], 31065 s⁻¹; in series [9], 45672 s⁻¹; in [11], 38880 s⁻¹; in series [12], 90998 s⁻¹. The kcat in series [15] worked out at 155676 s⁻¹. Besides, the vMax is 0.642 µmol/min in series [2]; 18.52 U/mg in series [6]; 9.57 U/mg in [7]; 14.09 U/mg in series [9]; 11.99 U/mg in series [11]; 28.06 U/mg in series [12]. In [15], this molecule showed a vMax of 48.03 U/mg.

B3: pNB-Est19: para-nitrobenzyl esterase, enzyme according to Seq ID No. 2, from Bacillus licheniformis (19C5), 489 amino acids (protein, listed as Bacillus licheniformis)
chain: B2 chain
Consider B3, for which the “Specific Activity” value was 234.8 U/mg in [1]; 1.19 µmol/min/mg in [2]; 3.9 U/mg in series [3]; 249.6 U/mg in series [4]; less than 1 U/mg in series [5]; less than 1 U/mg in [8]. Also, the “Specific Activity” value in series [10] is on record as 4.0 U/mg; in series [13] it was 1.3 U/mg; in [14], 83.6 U/mg. The kcat in series [2] is 3838 s⁻¹; in series [6], 50718 s⁻¹; in series [7] it was 23265 s⁻¹; in series [9] it was 50970 s⁻¹; in series [11], 27637 s⁻¹; in series [12], 99411 s⁻¹. The vMax was 0.385 µmol/min in series [2]; 15.69 U/mg in series [6]; 7.20 U/mg in series [7]; 15.76 U/mg in series [9]; 8.55 U/mg in series [11]; 30.79 U/mg in series [12]. Further, the vMax in series [15] amounted to 40.69 U/mg.

(Values after patent US8580549B2, “Esterases for separating plastics” (Henkel KGaA, priority 2005, dated 2013).)
